# Data taken from the nanobody polyreactivity screen of Harvey et al. (2022).
# Test: yeast display, Sf9 membrane polyspecificity reagent, FACS + sequencing; frameworks hold sequencing errors
# Outline: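 A synthetic nanobody library was expressed on Saccharomyces cerevisiae BJ5465 by galactose induction for 36–48 hours. The library was stained for 1 hour at 4 °C with 10% biotinylated, detergent-solubilized Sf9 membrane reagent and enriched with streptavidin microbeads before FACS. Low and high (top ~1%) gates were set on anti-HA fluorescence for expression and streptavidin fluorescence for reagent binding, and each polyreactivity label reflects the gate of origin.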
row,Sequence,polyreactivity (PSR sort gate)
1,QVQLVESGGGLVQAGGSLRLSCAASGSIFIPYAMGWYRQAPGKERDLVAAIRYSGASTYYADSVKGRFTISRDNAKNTVFLQMNSLKPEDTAVYYCAARVVDQEVGRPYYYWGQGTQVTVSS,high polyreactivity
2,QVQLVESGGGLVQAGGSLRLSCAASGSIFIQYAMGWYRQAPGKERELVAAITSGDDTYYADSVKGRFTISRDNAKNTVYLQMNSLKPEDTAVYYCAKRAHFSSARHVYYIYDYWGQGTQVTVSS,low polyreactivity
3,QVQLVESGGGLVQAGGSLRLSCAASGSIFIRYVMGWYRQAPGKERELVAAITGSGSRTYYADSVKGRFTISRDNAKNTVYLQMNSLKPEDTAVYYCAADWTKSRRYYWGQGTQVTVSS,high polyreactivity
4,QVQLVESGGGLVQAGGSLRLSCAASGSIFISYAMGWYRQAPGKESELVDAINYSGGSTYYADSVKGRFTISRDNAKNTVYLQMNSLKPEDTAVYYCAKRSTYRYYGYKLRDYWGQGTQVTVSS,low polyreactivity
5,QVQLVESGGGLVQAGGSLRLSCAASGSIFITYAMGWYRQAPGKERELVAAIRDSGDRTYYADSVKGRFTISRDNAKNTVYLQMNSLKPEDTEVYYCNALWQEPLKYDYWGQGTQVTVSS,low polyreactivity
6,QVQLVESGGGLVQAGGSLRLSCAASGSIFIVNAMGWYRPAPGKERELVAAISRSGGRTYYADSVKVRFTISRDNAKNTVYLQMNSLKPEDTAVYYCNARSRARKVAYDYWGQGTQVTVSS,high polyreactivity
7,QVQLVESGGGLVQAGGSLRLSCAASGSIFIWYAMGWSRQAPGKEREFVAAITYTGTSTYYADSVKGRFTISRDNAKNTVYLQMNSLKPEDTAVYYCAADKSTHPFPSDPGYGYWGQGTQVTVSS,low polyreactivity
8,QVQLVESGGGLVQAGGSLRLSCAASGSIFIWYAMGWYRQAPGKERELVAAITSSGSTNYADSVKGRFTISRDNAKNTVYLQMNSLKPEDTAVYYCADEYTYYTYNLNYWGQGTQVTVSS,low polyreactivity
9,QVQLVESGGGLVQAGGSLRLSCAASGSIFIWYTMGWYRQAPGKERELVAAIDWNSGSTYYADSVKGRFTISRDNAKNTVYLQMNSLKPEDTAVYYCAATTFSGWFIFYYWGQGTQVTVSS,low polyreactivity
10,QVQLVESGGGLVQAGGSLRLSCAASGSIFIYYAMGWKRQAPGKERELVAAISWRGGGTYYADSVKGRFTISRDNAKNTVYLQMNSLKPEDTAVYYCAADFYDPFDYWGQGTQVTVSS,low polyreactivity
11,QVQLVESGGGLVQAGGSLRLSCAASGSIFIYYAMGWYRQAPGKERELVAAINIGGSTYYADSVKGRFTISRDNAKNTVYFQMNSLKPEDTAVYYCNAATWYRVYPYYIIFDYWGQGTQVTVSS,low polyreactivity
12,QVQLVESGGGLVQAGGSLRLSCAASGSIFKANAMGWYRQAPGKERELVATISTSSGGTYYADSVKGRFTISRDNAKNTVYLQMNSLKPEDTAVYYCAALTYPPFYWGQGTQVTVSS,high polyreactivity
13,QVQLVESGGGLVQAGGSLRLSCAASGSIFKFYAMGWYRQAPGKERELVAAISSSGTSTYYADSVKGRFTISRDNAKNTVYLQMNSLKPEDTAVYYCAARGGVQNEVKGSPYYYWGQGTQVTVSS,high polyreactivity
14,QVQLVESGGGLVQAGGSLRLSCAASGSIFKGYAMGWYRQAPGKERELVAAISIRGGSTYYADSVKGRFTISRDNAKNTVYLQMNSLKPEDTAVYYCAASSKRKYLYNYWGQGTQVTVSS,high polyreactivity
15,QVQLVESGGGLVQAGGSLRLSCAASGSIFKGYTMGWYRQAPGNERELVASMRPRGGSTYYADSVKGRFTMSRHNAKNPVDLQMNSLKPEDTAVYYCAAPWGGFAGQERKYDYWGQGTQVTVSS,low polyreactivity
16,QVQLVESGGGLVQAGGSLRLSCAASGSIFKHNAMGWYRQAPGKERELVATISESGGSTYYADSVKGRFTISRDNAKNTVYLQMNSLKPEDTAVYYCNTDYDYGWWDLGEYDYWGQGTQVTVSS,low polyreactivity
17,QVQLVESGGGLVQAGGSLRLSCAASGSIFKINAMGWYRQAPGKERELVATITWSTGTSYYADSVKGRFTISRDNAKNTVYLQMNSLKPEDTAVYYCATDGDSTKLDYWGQGTQVTVSS,low polyreactivity
18,QVQLVESGGGLVQAGGSLRLSCAASGSIFKINAMGWYRQAPWKERDFVAAITWSGGSTYYADSVKGRFTISRDNAKHTVYLQMNSLKPEDTAVYYCNARYFNYSTFGGKMGYWGQGTQVTVSS,high polyreactivity
19,QVQLVESGGGLVQAGGSLRLSCAASGSIFKINTMGWYRQAPRQERELVAAISKRGGSTYYADSVKGRFTISRDNAKITVYLQMNSLKPDDTAVYYCAAREFYKYYYWGQVTQVTVSS,high polyreactivity
20,QVQLVESGGGLVQAGGSLRLSCAASGSIFKIYAMGWYRQAHGKERELVAAISRRGSSTSYADSVKGRFTISRDNAKNTVYLQMNSLKPEDTAVYYCAARYISNPMDYWGQGTQVTVSS,high polyreactivity
21,QVQLVESGGGLVQAGGSLRLSCAASGSIFKKYAMGWYRPAPGKERELVAAITRGTYYADSVKGRFTISRDNAKNTVYLQMNSLKPEDTAVYDCNREYWGRGYYRVRGEYDYWGQGTQVSVSS,low polyreactivity
22,QVQLVESGGGLVQAGGSLRLSCAASGSIFKKYAMGWYRQAPGKERELVAAITSGGSTYYADSVKGRFTISRDNAKNTVYLQMNSLKPEDTAVYYCATYRKGSLGSWGQGTQVTVSS,high polyreactivity

row,Sequence,polyreactivity (PSR sort gate)
1,QVQLVESGGGLVQAGGSLRLSCAASGSIFKLNAMGWYRQAPGKERELVAVINKSGGRTYYADSVKGRFTISRDNAKNTVYFQMNSLKPEDTAVYYCNAVSKLAVNLDYWGQGTQVTVSS,high polyreactivity
2,QVQLVESGGGLVQAGGSLRLSCAASGSIFKLNAMGWYRQAPGKERELVAVINKSGGRTYYADSVKGRFTISRDNAKNTVYLQMNSLKPEDTAVYFCNAVSKLAVNLDYWGQGTQVTVSS,high polyreactivity
3,QVQLVESGGGLVQAGGSLRLSCAASGSIFKPYAMGWYRQAPGKERELVAAISTRGSSTYYADSVKGRFTISRDNAKNTVYLQMNSLIPEDTAVYYCAKRRYLWGYEYDSWGQGTQVTVSS,high polyreactivity
4,QVQLVESGGGLVQAGGSLRLSCAASGSIFKVNTMGWHRQAPGTERELVAAISSSDDSTYYADSVKGRFTISRDNAKNTVYLQMNSLKPEDTAVYYCAADGSSVDSGGINDEYWGQGTQVTVSS,low polyreactivity
5,QVQLVESGGGLVQAGGSLRLSCAASGSIFKVNTMGWYRQAPGKERELVAAISSSDDSTYYADSVKGRFTISRDNAKNTVYLQMNSLKPEDTAVYYCAADGSSVDSGGINDEYWGQGTQVTVSS,low polyreactivity
6,QVQLVESGGGLVQAGGSLRLSCAASGSIFKVNTMGWYRQAPGKERELVAAISYSGGSTYYADSVKGRFTISRDHAKNTVYLQMNSLKPEDTAVYYCNVSPTTSGDGGGYDSWGQGTQVTVSS,low polyreactivity
7,QVQLVESGGGLVQAGGSLRLSCAASGSIFKYYAKGWYRQAPGKERELVAAITIGGNTNYADSVKGRFTISRDNAKNTVYLQMNSLKPEDTAVYYCATGGYYSAIVYGGYDYWGHGTQVTVSS,low polyreactivity
8,QVQLVESGGGLVQAGGSLRLSCAASGSIFKYYAMGWYRQAPGKERELLADISFGGDSTYYADSVKGRFTISRDNAKNTVYLQMNSLIPEDTAVYYCAAAPYFWFVEYDYWGQGTQVTVSS,low polyreactivity
9,QVQLVESGGGLVQAGGSLRLSCAASGSIFKYYAMGWYRQAPGKERELVAAINSGGDTYYADSVKGRFTISRDNAKNTVYLQMNSLKPEDTAVYYCAAYGYAGYAHRDMDYWGQGSQVTVSS,low polyreactivity
10,QVQLVESGGGLVQAGGSLRLSCAASGSIFKYYAMGWYRQAPGKERELVAAISSGGRTYYADSVKGRFTISRDNAKNTVYLQMNSLKPEDTAVYYCNRPPWSRGSNYWGQGTQVTVSS,high polyreactivity
11,QVQLVESGGGLVQAGGSLRLSCAASGSIFKYYAMGWYRQAPGKERELVAAITGSGGNTYYADSVKGRFTISRDNAKNTVYLQMNSLKPEDTAVYYCAATYWWAYVWAYSHVKSTNDYWGQGTQVTVSS,low polyreactivity
12,QVQLVESGGGLVQAGGSLRLSCAASGSIFKYYAMGWYRQAPGKERELVAAITSSGARTYYADSVKGRFTISRDNAKNTVYLQMNSLKPEDTAVYYCRGYVRDQSKYDYWGQGTQVTVSS,high polyreactivity
13,QVQLVESGGGLVQAGGSLRLSCAASGSIFKYYTMGWYRQAPGKDRELVAAISSGGSTTYADSVKGRFTISRDNAKNSVYLQMNSLKPEDTAVYCCAAGYGYPTFVERDYWGHGTQVTVSS,high polyreactivity
14,QVQLVESGGGLVQAGGSLRLSCAASGSIFLENTMGWYRQAPGKERELVAAITSSGDSTYADSVKGRFTISRDNAKNTVYLQMNSLKPEDTAVYYCNKDYDDIAPTRAVLDRYDYWGQGTQVTVSS,low polyreactivity
15,QVQLVESGGGLVQAGGSLRLSCAASGSIFLFYTMGWYRQAPGKERELVASSSGGGTHYADSVKGRFTISRDNAKNTVYLQMNSLKPEDTAVYYCATPNKNGQNLGGVWEAYDYWGQGTQVTVSS,low polyreactivity
16,QVQLVESGGGLVQAGGSLRLSCAASGSIFLFYTMGWYRQATGKERELVAAISYSGGNTYYADSVKGRFTISRDNATNTVYLQMNSLKPEDTAVYYCNVRTQWARYDYWRQGTQVTVSS,high polyreactivity
17,QVQLVESGGGLVQAGGSLRLSCAASGSIFLGNAMGWYRQAPGKESELVAAISSITGRTYYADSVKGRFTISRDNAKNTVYLQMNSLKPEDTAVYYCNKVKRSFIVNTDDYWGQGTQVTVSS,high polyreactivity
18,QVQLVESGGGLVQAGGSLRLSCAASGSIFLGYAMGWYRQAPGKERELVATITSSGSTSYADSVKGRFTISRDNAKNTVYLQMKSLKPEDTAVYFCNTDLFQYGVNHYEYWGQGTQVTVSS,high polyreactivity
19,QVQLVESGGGLVQAGGSLRLSCAASGSIFLHNAMGWYRQAPGKERELVAGITSSGTSTYYADSVKGRFTISRDNEKNTVYLQMNSLKPEDTAVYYCAAYRYGSRGGYCGQGTQVTVSS,high polyreactivity
20,QVQLVESGGGLVQAGGSLRLSCAASGSIFLHNAMGWYRQAPGKERELVAVITSRGGSTYYADSVKGRLTISRDNAKNTVYLQMKSLKPEDTAVYYCAAPAYHKRTSRGDYWGQGTQVTVSS,low polyreactivity
21,QVQLVESGGGLVQAGGSLRLSCAASGSIFLHYAMGWYRQAPGKERELVAAISRSGGRTYYADSVKGRFTISRDNAKNTVYLQMNSLKPEDTAVYYCAARVPRYRKDSVWAYYYWGQGPQVTVSS,high polyreactivity
